± gives the uncertainty stated by the source.
Assay: self-splicing fitness, log relative to wild type (ln ratio); higher = more splicing; Tetrahymena group I intron in knt gene, E. coli kanamycin selection, DiMSum; sequences stand for … in CUCUCU…GGAGGGAAAAGUUAUCAGGCAUGCACCUGGUAGCUAGUCUUUAAACCAAUAGAUUGCAUCGGUUUAAAAGGCAAGACCGUCAAAUUGCGGGAAAGGGGUCAACAGCCGUUCAGUACCAAGUCUCAGGGGAAACUUUGAGAUGGCCUUGCAAAGGGUAUGGUAAUAAGCUGACGGACAUGGUCCUAACCACGCAGCCAAGUCCUAAGUCAACAGAUCUUCUGUUGAUAUGGAUGCAGUUCACAGACUAAAUGUCGGUCGGGGAAGAUGUAUUCUUCUCAUAAGAUAUAGUCGGACCUCUCCUUAAUGGGAGCUAGCGGAUGAAGUGAUGCAACACUGGAGCCGCUGGGAACUAAUUUGUAUGCGAAAGUAUAUUGAUUAGUUUUGGAGUACUCGUGGUCG
In short: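 DiMSum derived fitness as the error-weighted combination of fold changes across replicates, kanamycin versus no kanamycin, normalised to wild type. E. coli BL21(DE3) held the library, which randomised all eight P1ex-region intron nucleotides within the knt kanamycin-resistance gene on pET-22b(+). Six replicate transformations grew overnight at 37°C or 30°C on LB agar with or without 25 μg/mL kanamycin, also containing 100 μg/mL carbenicillin, 50 μM IPTG and 0.2% rhamnose, and pooled colonies were amplicon-sequenced on an Illumina HiSeq 2500.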

Sequence | self-splicing fitness (ln) (30 °C) | self-splicing fitness (ln) (37 °C)
ACUGAGCAAUAUUACGAGUU | -2.88 ± 0.17 | -2.91 ± 0.28
CUUGAGCAAUAUUACGCAUC | -3.14 ± 0.4 | -2.75 ± 0.44
CCUAAGCAAUAUUACGAUUC | -3.13 ± 0.29 | -2.6 ± 0.41
CAACAGCAAUAUUACGCUCU | -1.33 ± 0.079 | -0.581 ± 0.1
GAUUAGCAAUAUUACGGGAA | -1.67 ± 0.26 | -3.27 ± 0.43
CACAAGCAAUAUUACGUAGU | -3.4 ± 0.12 | -1.81 ± 0.11
CAGAAGCAAUAUUACGUGAA | -3.07 ± 0.13 | -1.16 ± 0.12
AAAGAGCAAUAUUACGGACA | -2.68 ± 0.3 | -1.81 ± 0.32
CCCGAGCAAUAUUACGUCUA | -3.33 ± 0.2 | -2.42 ± 0.22
AAAGAGCAAUAUUACGGGUU | -3.43 ± 0.16 | -2.78 ± 0.21
AUUCAGCAAUAUUACGGGUA | -1.89 ± 0.11 | -1.31 ± 0.12
UGCGAGCAAUAUUACGGAUG | -3.65 ± 0.16 | -2.02 ± 0.14
GUUCAGCAAUAUUACGGGCA |  | -1.11 ± 0.34
UACGAGCAAUAUUACGUUUA | -2.32 ± 0.12 | -1.79 ± 0.12
UCGCAGCAAUAUUACGACGA | -1.67 ± 0.17 | -0.408 ± 0.14
UUGGAGCAAUAUUACGCAUU | -1.87 ± 0.33 | 
CAACAGCAAUAUUACGAACA | -2.43 ± 0.099 | -1.17 ± 0.075
ACCAAGCAAUAUUACGUAUG | -3.59 ± 0.13 | -2.53 ± 0.12
ACGAAGCAAUAUUACGACUG | -0.657 ± 0.09 | -0.396 ± 0.098
AUGCAGCAAUAUUACGGUAA | -0.979 ± 0.11 | -0.791 ± 0.1
AAACAGCAAUAUUACGGCUA | -0.275 ± 0.064 | -0.0695 ± 0.076
GUCAAGCAAUAUUACGACGC | -1.35 ± 0.11 | 0.832 ± 0.18
GGGCAGCAAUAUUACGAAGA | -2.31 ± 0.21 | -0.958 ± 0.16
UAAGAGCAAUAUUACGCCUA | -2.03 ± 0.15 | -1.41 ± 0.12
UUUUAGCAAUAUUACGCCUG | -0.393 ± 0.22 | 0.333 ± 0.3

Sequence | self-splicing fitness (ln) (30 °C) | self-splicing fitness (ln) (37 °C)
AUCUAGCAAUAUUACGCCCC | -0.911 ± 0.15 | 0.223 ± 0.22
CUUGAGCAAUAUUACGUAAA |  | -0.936 ± 0.2
ACACAGCAAUAUUACGGGAG | -2.04 ± 0.073 | -2.15 ± 0.084
UGUCAGCAAUAUUACGCGUA | -0.0687 ± 0.063 | 0.148 ± 0.073
CUGGAGCAAUAUUACGAGUU | -2.26 ± 0.13 | -3.51 ± 0.33
UUAAAGCAAUAUUACGUUGU | -3.19 ± 0.13 | -1.4 ± 0.13
CUAGAGCAAUAUUACGCUGC | -3.8 ± 0.33 | -2.33 ± 0.33
GACCAGCAAUAUUACGGUUU | -2.44 ± 0.083 | -0.744 ± 0.079
UGAAAGCAAUAUUACGAUAC | -2.87 ± 0.19 | -2.8 ± 0.33
CAGUAGCAAUAUUACGCAAG | -1.07 ± 0.12 | -0.553 ± 0.17
GGUAAGCAAUAUUACGUAGC | -0.417 ± 0.41 | 
CCGAAGCAAUAUUACGAAUC | -4.12 ± 0.32 | -3.04 ± 0.48
UACAAGCAAUAUUACGCCCA | 0.292 ± 0.11 | 0.261 ± 0.13
UUUCAGCAAUAUUACGAAUA | -0.788 ± 0.15 | 0.446 ± 0.13
UAUAAGCAAUAUUACGUAGC |  | -2.05 ± 0.36
GUGCAGCAAUAUUACGCCUC | -0.807 ± 0.17 | 0.123 ± 0.21
UGUGAGCAAUAUUACGGAAG | -2.97 ± 0.25 | -1.76 ± 0.26
UUGUAGCAAUAUUACGGAUU |  | -2 ± 0.34
CAAGAGCAAUAUUACGGCAA | -3.01 ± 0.29 | -3.03 ± 0.38
AAAGAGCAAUAUUACGAUGG | -3.63 ± 0.33 | -1.89 ± 0.25
AAUGAGCAAUAUUACGUGGG | -4.39 ± 0.36 | -2.87 ± 0.21
UGUAAGCAAUAUUACGUCGU | -3.66 ± 0.24 | -1.97 ± 0.18
UACUAGCAAUAUUACGCCCC | -2.19 ± 0.41 | -1.18 ± 0.43
UAAGAGCAAUAUUACGGCUG | -1.55 ± 0.12 | -0.424 ± 0.18
ACAAAGCAAUAUUACGUUUU | -3.53 ± 0.14 | -2.95 ± 0.16

Sequence | self-splicing fitness (ln) (30 °C) | self-splicing fitness (ln) (37 °C)
GAGAAGCAAUAUUACGAGGU | -3.47 ± 0.33 | -3.9 ± 0.46
GCCUAGCAAUAUUACGUAUC | -1.26 ± 0.076 | -0.501 ± 0.094
UUGAAGCAAUAUUACGGACU | 0.0826 ± 0.16 | 0.0377 ± 0.12
AAUUAGCAAUAUUACGCUGU | -1.44 ± 0.16 | -1.26 ± 0.2
GGGUAGCAAUAUUACGUAUA | -1.41 ± 0.14 | -0.205 ± 0.15
UUCUAGCAAUAUUACGAUAG |  | -2.05 ± 0.36
UGGUAGCAAUAUUACGAUAA | -1.45 ± 0.21 | -0.6 ± 0.24
CGAUAGCAAUAUUACGCACG | -2.6 ± 0.36 | -1.91 ± 0.37
GAAAAGCAAUAUUACGACGA | -0.234 ± 0.09 | -0.0451 ± 0.096
AUUCAGCAAUAUUACGAAAG | -1.5 ± 0.11 | -1.03 ± 0.13
CUCAAGCAAUAUUACGAAAC | -3.86 ± 0.32 | -1.55 ± 0.17
UCAAAGCAAUAUUACGUACU | -3.16 ± 0.45 | -2.28 ± 0.37
AUAGAGCAAUAUUACGGCGG | -1.71 ± 0.1 | -1.32 ± 0.13
UCCAAGCAAUAUUACGGGGC | -4.07 ± 0.23 | -3.13 ± 0.2
GAUAAGCAAUAUUACGGGAA | -2.84 ± 0.25 | -1.99 ± 0.22
GAGAAGCAAUAUUACGGUUU | -1.07 ± 0.099 | -1.21 ± 0.14
GUGGAGCAAUAUUACGGCAA |  | -1.55 ± 0.35
AAAAAGCAAUAUUACGACUA | -0.0366 ± 0.1 | 0.028 ± 0.1
ACCAAGCAAUAUUACGUCCC | -2.14 ± 0.12 | -0.924 ± 0.17
UGCCAGCAAUAUUACGACGA | -1.01 ± 0.12 | -1.01 ± 0.12
CGACAGCAAUAUUACGAGAG | -3.42 ± 0.12 | -1.95 ± 0.11
CUAAAGCAAUAUUACGACUC | -4.65 ± 0.46 | -2.38 ± 0.31
UGUUAGCAAUAUUACGUAGG | -2.19 ± 0.11 | -0.461 ± 0.12
GAAGAGCAAUAUUACGUUGC | -3.04 ± 0.28 | -2.25 ± 0.27
GCCGAGCAAUAUUACGUACU | -2.15 ± 0.17 | -1.23 ± 0.18

Sequence | self-splicing fitness (ln) (30 °C) | self-splicing fitness (ln) (37 °C)
UCAUAGCAAUAUUACGCUUG | -1.97 ± 0.15 | -2 ± 0.19
CCGGAGCAAUAUUACGAUGG | -3.6 ± 0.48 | -3 ± 0.43
CGCAAGCAAUAUUACGGGUG | -1.59 ± 0.062 | -0.366 ± 0.08
AAUCAGCAAUAUUACGUAUC | -0.504 ± 0.044 | 0.251 ± 0.068
GGUCAGCAAUAUUACGUGCU | -1.5 ± 0.052 | -0.199 ± 0.067
GUUUAGCAAUAUUACGGGCA | -1.85 ± 0.17 | -0.96 ± 0.15
CGAAAGCAAUAUUACGACGU | -0.439 ± 0.067 | 0.0287 ± 0.078
AGUAAGCAAUAUUACGAUUA | -0.948 ± 0.082 | 0.25 ± 0.092
CAUUAGCAAUAUUACGUGUG | -2.91 ± 0.19 | -3.15 ± 0.19
GUCGAGCAAUAUUACGUCGU | -0.515 ± 0.12 | -0.592 ± 0.17
GCGUAGCAAUAUUACGAGUC | -2.81 ± 0.22 | -2.17 ± 0.23
UUCGAGCAAUAUUACGUGCG | -3.18 ± 0.23 | -2.18 ± 0.26
UAUAAGCAAUAUUACGCUUG | -1.75 ± 0.15 | -0.76 ± 0.14
ACGGAGCAAUAUUACGCGUC |  | -1.92 ± 0.33
UCCUAGCAAUAUUACGUAUG | -4.13 ± 0.3 | -2.62 ± 0.26
AUGUAGCAAUAUUACGGUUU | -0.83 ± 0.085 | -0.694 ± 0.1
GUAUAGCAAUAUUACGUACA | -2.07 ± 0.28 | -0.449 ± 0.23
GUGCAGCAAUAUUACGACCU | -1.51 ± 0.27 | -0.504 ± 0.24
GAAAAGCAAUAUUACGUAUC | -3.9 ± 0.15 | -1.48 ± 0.1
AUGUAGCAAUAUUACGCCCC | -0.236 ± 0.22 | -0.186 ± 0.3
GCCAAGCAAUAUUACGUGGG | -2.97 ± 0.1 | -3.25 ± 0.13
GAGUAGCAAUAUUACGGAGU | -3.7 ± 0.27 | -3.05 ± 0.19
CUAAAGCAAUAUUACGCCUC | -3.62 ± 0.21 | -1.85 ± 0.27

Reference: the supplement of paper PMC7877785
